In this series the test system is T1, GdmRIII (Streptomyces autolyticus CGMCC0516), ORF:755639c7.
T1 sequence: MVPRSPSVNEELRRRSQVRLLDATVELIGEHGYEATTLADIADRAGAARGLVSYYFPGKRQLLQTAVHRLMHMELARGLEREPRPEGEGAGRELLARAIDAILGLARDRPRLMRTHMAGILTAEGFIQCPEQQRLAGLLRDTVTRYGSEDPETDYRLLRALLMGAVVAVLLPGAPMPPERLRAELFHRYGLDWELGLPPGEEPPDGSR
Kind of series: EMSA. The settings on record: EMSA: 10 mM Tris-HCl pH 7.5, 50 mM NaCl, 10 mM MgCl2, 1 mM EDTA, 1 mM DTT, 5% glycerol, 0.1 ug/ul poly(dI-dC), 0.3 nM DNA; temperature not given.
Turning to “AGGAGCTGCCCGACTGGCGGTCCTTCTGGGAGCTGCCGCACGACATCGTCGATGTGCGCGGCAACCACTTCACCATGATGGAGGACCACTCCCTCCCCACCGCCCAGGCCATCGAGGACTGGCTGGAGCGACT (double strand) [elaF promoter]”, the binding entry was “binds”.
As for “GCGACGTCCACCGCCGTCTCCTTCCCGCTCATTCGCCCGCCAGGATCAGATCGACCGTGTCCTGGAACTCGTCCGCCTTCACCAGCACCTTGGTGCGCTCCACCCCGTCCTCGACGGTGAAGCAGCGCCTGCCGATCAGCACGATCTTTCCGTTGTCCGTGGCCCGGCTGCGGAAGGTGGTCCCGGCGAGCACCGAGTCCTGTGCGTAGTCGTCCAGGCTGTCCAGCCGCACCGCGTCCCAGCCGGACGGGTCGGCCAGCTCCGGCCGGAACCGGTACACCGGCTGCCAGCCGCTCTC (double strand) [gdmM promoter]”, the binding entry is reported as “binds”.
For “GCTCACCGACCCCGCGCACGAGGTGCTGGTCATCACGATGGCCGACCGGTTCGGCCCGCACGGCGCCGTCGGCATCGTGCTGCTGGAACGCCACCCGGCGGTGTGGCATCTGAAACTGCTCGCCACCTCCTGCCGTGTGGTCTCCTACGGCGCCGGGTCCACCCTGCTGAACTGGCTGGCCGACCAGGCGGCGCGTGCCGGGGTGCATCTGGCCGCCGACTTCCGGCGCACCGACCGCAACCGGATGATGGAGGTCGCCTACCGCTTCGCCGGGTTCGCCGACGCCGACTGCGCCTGCAC (double strand) [gdmN promoter]” the value was “binds”.

The record behind these values is paper PMC5500506.
